Assay results as given in patent US20220112292A1 (ALETA BIOTHERAPEUTICS, published 2022).
Positions count from the first letter of the chain named. One block for each binder: values may come before it.

Tests used:
[1] = target: T1, Clec12A-His (Sino Biological, 11896-H07H) (human, UniProt Q5QGZ9 65-265); assay: ELISA on plate coated with CLEC12a-His; unlabeled VHH at 10 ug/ml first, biotinylated VHH at 0.2 ug/ml second, streptavidin-HRP
T1 construct: Bought soluble protein; also called soluble CLEC12a-His; Sino Biological Clec12A
T1 chain: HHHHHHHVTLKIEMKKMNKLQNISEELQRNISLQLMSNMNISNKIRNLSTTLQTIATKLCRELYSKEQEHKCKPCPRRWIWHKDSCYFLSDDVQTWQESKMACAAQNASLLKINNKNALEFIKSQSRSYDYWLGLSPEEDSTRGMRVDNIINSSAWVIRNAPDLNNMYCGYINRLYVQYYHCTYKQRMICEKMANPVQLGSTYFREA
Method: ELISAs were used to determine if the VHH clones recognized distinct or similar epitopes. […] The plate was blocked with 0.3% nonfat milk in TBS (200 ul/well) for 1 hr at RT. The plates were washed 3× with 1×TBST (0.1 M Tris, 0.5 M NaCl and 0.05% Tween-20). The test anti-CLEC12a VHHs were added at 10 ug/ml horizontally across the plate, 100 ul per well and incubated for 1 h. Without washing, the test anti-CLEC12a biotinylated VHHs were added at 0.2 ug/ml vertically down the plate, 100 ul per well and incubate for 1 h. After being washed 3× with 1×TBST, HRP-conjugated streptavidin (Pierce #21130) at 1:2000 (100 ul/well) was added, followed by incubation at RT in the dark for 1 hr. For detection, 1-Step Ultra TMB-ELISA reagent (Thermo Fisher #34028) was added at 100 ul per well and read at 450 nm. […] The 1H1 VHH was distinct from these, and 2C2 was intermediate. Results are depicted in FIGS. 7A-7D.

CLL-1 on U937 cells [2] = target: T2, CLL-1 on U937 cells (human, UniProt Q5QGZ9 1-265); assay: flow cytometry on U937 cells, clone lysate, anti-cMyc-PE (Table 3 summary)
T2 construct: whole, on cells; also called CLEC12A; Clec12A
T2 sequence: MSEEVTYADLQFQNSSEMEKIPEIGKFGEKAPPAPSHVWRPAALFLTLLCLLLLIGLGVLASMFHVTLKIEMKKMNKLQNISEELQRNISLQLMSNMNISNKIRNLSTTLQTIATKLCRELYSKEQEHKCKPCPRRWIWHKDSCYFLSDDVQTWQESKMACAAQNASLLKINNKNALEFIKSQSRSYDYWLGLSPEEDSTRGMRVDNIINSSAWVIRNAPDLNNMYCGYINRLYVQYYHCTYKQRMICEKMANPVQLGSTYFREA

CLL-1 on U937 cells [3] = target: T2, CLL-1 on U937 cells; assay: flow cytometry on U937 cells, VHH at 3 ug/ml, detected with a-His-PE; a-His-PE alone 1.1% and 5,576.5, unstained 0.6% and 5,793.5
Method: U937 cell binding by VHH clones was assessed. Briefly, the method included: U937 cells (2.5×10\hat{ }5) were Fc blocked (human Fc block, BD Cat. #BDB564220) for 10 min at room temperature, then washed once with FACS buffer (PBS+1% BSA+0.1% Sodium Azide) by spinning at 500G for 2 min; VHH clones (3 μg/ml as final conc) in FACS buffer were added to the cell pellets and incubated for 30 min at 4° C., then washed twice with FACS buffer by spinning at 500G for 2 min; anti-His-PE (R&D Systems, Cat. #IC050P) was added to cells; the mixture was incubated for 30 min at 4° C. and washed twice with FACS buffer by spinning at 500G for 2 min; 1% PFA (Paraformaldehyde) in PBS was added to cell pellet to fix the cells, followed by FACS analysis. VHH clones tested: 1B5: stock=1.6 mg/ml; 1H1: stock=1.9 mg/ml; 1G6: stock=1.1 mg/ml; 2F3: stock=1.45 mg/ml; 2F5: stock=0.5 mg/ml; 2H3: stock=2 mg/ml. As shown in FIGS. 2A-2C, binding of clones 1H1, 1G6, 2F5 and 2H3 to U937 cells was detected with anti-His-PE; very little binding of clones 1B5 and 2F3 to U937 cells could be detected by anti-His-PE.

binding result [1]: binds
B1: VHH clone 1B1 (VHH)
VHH: QVQLQESGGGLVQAGGSLRLSCAASGSIFAINEINLMGWYRQAPGKQRELVAACASDGNTYYADSVKGRFTISRDNAEKTVYLQMNNLKPDDTAVYYCDANSRGNYYSGQGTQVTVSS
notes: also called 2A6; 2A10

% FACS positive (CLL-1 on U937 cells [2]): 85.9%
B2: VHH clone 2H10 (VHH)
VHH: B1 VHH with S7F
notes: includes myc and His tags; also called 1G3

% FACS positive (CLL-1 on U937 cells [2]): 73.4%
B3: VHH clone 2C8 (VHH)
VHH: B1 VHH with Q5V, Q113L
notes: Includes myc and His tags

% of This Plot (R3 PE+) (CLL-1 on U937 cells [3]): 12.4% | Mean FL2-A (R3 gate) (CLL-1 on U937 cells [3]): 3570
B8: VHH clone 2F3 (VHH)
VHH: QVQLQAFGGGLVQPGGSLRLSCVVSGTMFSGKDVNWLRQAPGKHVEVVATVSSDGGTDYADFVKGRFTISRDDAKNTVNLQMNSLEPEDTANYMCHFLWGRHYWGQGTQVTVSS
notes: Includes myc and His tags

% FACS positive (CLL-1 on U937 cells [2]): 59.7%
B9: VHH clone 2G10 (VHH)
VHH: QVQLQQSGGGLVQAGGSLRLSCAASGSIFSINAMGWYRQAPGKRREMVAVVSRFGETTYTGSVKGRFTISRINRNNTVFLQMNRLKPEDTAVYYCNARIRGNYGSRIDYWGQGTQVTVSS
notes: Includes myc and His tags

More lines, now with the values behind:

B4: VHH clone 2A11 (VHH)
VHH: B1 VHH with A14P, Q113L
notes: Includes myc and His tags
% FACS positive (CLL-1 on U937 cells [2]): 86.3%

B5: VHH clone 1B5 (VHH)
VHH: QVQLQESGGGLVQAGGSLRLSCVVSGATSNVNAMGWYRQAPGKERELVAAISSGGSTSYRDSVKGRFTISRDNAKNTLYLQMNSLKPEDTAMYYCAAQDWATEGYEYDYWGQGTLVTVSS
notes: Includes myc and His tags
% of This Plot (R3 PE+) (CLL-1 on U937 cells [3]): 2.3% | Mean FL2-A (R3 gate) (CLL-1 on U937 cells [3]): 4130

B6: VHH clone 1B11 (VHH)
VHH: AVQLQESGGGLVQAGGSLRLSCAASGSDRSINVMNWYRQAPGKQRELVAAITSGGTTNYAQSVKGRVTISRDSAKNTVYLQMNSLKPEDTAVYFCKADTRWGGMYWGPGTQVTVSS
notes: Includes myc and His tags
% FACS positive (CLL-1 on U937 cells [2]): 77.8%

B7: VHH clone 1D2 (VHH)
VHH: QVQLQQSGGGLVQPGGSLRLSCAASGFAFDDYAMIWVRQGPGKGLEWVSSISWNGGGTYYAESIVGRFTVSRDNAKKMVYLQMNGLKSEDTAMYYCVKLVDSGWYSAYDYWGQGTQVTVSS
notes: Includes myc and His tags
% FACS positive (CLL-1 on U937 cells [2]): 14.6%

B10: VHH clone 2A8 (VHH)
VHH: QVQLQAFGGGMVQAGESLRLSCVASGNDISGSAMAWYRAHLGAERELVAVDAPRERPFYIDPVIGRFTISRDDRNKMLYLQMNDLRPDDTATYWCGPSLRTFHGREWYRPPWFTSWGQGTQVTVSS
notes: Includes myc and His tags
% FACS positive (CLL-1 on U937 cells [2]): 40.1%

B11: VHH clone 1A10 (VHH)
VHH: QVQLQESGGGLVQVGESLRLSCVVSGDTRSINLMGWYRQAPGKQRELVAACASDGNTYYADSVKGRFTISRDNAEKTVYLQMNNLKPDDTAVYYCDANSRGNYYSGQGTLVTVSS
notes: Includes myc and His tags
% FACS positive (CLL-1 on U937 cells [2]): 84.9% | binding result [1]: binds
